Two molecules from paper PMC3315506, “A Single Gene Target of an ETS-Family Transcription Factor Determines Neuronal CO2-Chemosensitivity” can be followed below.

Series [1] deals with T1, GST::ETS-5 (Caenorhabditis elegans, UniProt Q18579 1-208).
T1 sequence: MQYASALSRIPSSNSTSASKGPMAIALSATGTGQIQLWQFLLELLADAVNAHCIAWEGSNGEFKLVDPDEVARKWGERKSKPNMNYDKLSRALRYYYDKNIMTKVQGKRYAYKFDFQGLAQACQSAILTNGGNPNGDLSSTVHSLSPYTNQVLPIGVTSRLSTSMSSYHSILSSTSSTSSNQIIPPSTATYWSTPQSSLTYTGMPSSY
The series can be described thus: competition; scrambled competitor 10-500x molar excess over labeled N1; did not block; EMSA: 1 ug GST::ETS-5 or 2 ug GST, 0.1 pmol 3'-biotin duplex, room temperature 20 min, 6% polyacrylamide gel in 0.5x TBE; binding buffer, salt and pH not stated. As to conditions: protein: recombinant; tags: N-terminal GST (pGEX); label: unlabeled; blunt. (In EMSA bound probe runs differently from free probe, usually more slowly.)

The target of series [2] is T1, GST::ETS-5. Description: EMSA; also blocked by excess unlabeled probe (10-500x); EMSA: 1 ug GST::ETS-5 or 2 ug GST, 0.1 pmol 3'-biotin duplex, room temperature 20 min, 6% polyacrylamide gel in 0.5x TBE; binding buffer, salt and pH not stated. The conditions noted are these: protein: recombinant; tags: N-terminal GST (pGEX); label: 3'-biotin (labeled probe); blunt.

B1: scrambled competitor (dsDNA)
DNA 1: CTGACCCCGTGTCGCTAATAGACTCAGTTACGCAAGATGG
DNA 2: CCATCTTGCGTAACTGAGTCTATTAGCGACACGGGGTCAG
For B1, in the series with GST::ETS-5 [1], the binding result was “no binding”.

B2: gcy-9 promoter ETS-site probe (45 bp) (dsDNA)
DNA 1: ATCCACTTCCGATGGGCCCTTCCGGCATGATAAGAAGTGAGTGGC
DNA 2: GCCACTCACTTCTTATCATGCCGGAAGGGCCCATCGGAAGTGGAT
As to B2, the binding result with GST::ETS-5 [2] is “binds”.
